B1: αNTD:7D10/VM (scFv)
scFv: DIVMTQSPASLTVSLGQRATISCRASKSVSASGYNYLHWYQQRPGQPPKLLIYLAFNLESGVPARFNGSGSGTDFTLNIHPVEEEDAATYYCQHSRDLPFTFGSGTKLEIKGGGSGGGSGGGSEVQLVESGAEVVKPGASVKMSCKASGYPFTSYNIHWIKQTPGQGLEWIGAIYPGNGDTSYTQKFKVKATLTSDKSSSTAYMQLSSLTSEDSAVYFCARYGNYPSYAMDYWGQGTSVTVSSSRGMLDSDLHLSSKAQVFEHPHIQDAASQLPDDESLFFGDTGLSKNPIELVEGWFSSWKSSIASFFFIIGLIIGLFLVLRVGIHLCIKLKHTKKRQIYTDIEMNRLGK
B2: soluble 7D10 (antibody, V domains shown)
VH: EVQLVESGAEVVKPGASVKMSCKASGYPFTSYNIHWIKQTPGQGLEWIGAIYPGNGDTSYTQKFKVKATLTSDKSSSTAYMQLSSLTSEDSAVYFCARYGNYPSYAMDYWGQGTSVTVSS
VL: DIVMTQSPASLTVSLGQRATISCRASKSVSASGYNYLHWYQQRPGQPPKLLIYLAFNLESGVPARFNGSGSGTDFTLNIHPVEEEDAATYYCQHSRDLPFTFGSGTKLEIK

Target: MERS CoV spike protein (MERS CoV) (UniProt K9N5Q8)
Sequence (K9N5Q8 18-1353): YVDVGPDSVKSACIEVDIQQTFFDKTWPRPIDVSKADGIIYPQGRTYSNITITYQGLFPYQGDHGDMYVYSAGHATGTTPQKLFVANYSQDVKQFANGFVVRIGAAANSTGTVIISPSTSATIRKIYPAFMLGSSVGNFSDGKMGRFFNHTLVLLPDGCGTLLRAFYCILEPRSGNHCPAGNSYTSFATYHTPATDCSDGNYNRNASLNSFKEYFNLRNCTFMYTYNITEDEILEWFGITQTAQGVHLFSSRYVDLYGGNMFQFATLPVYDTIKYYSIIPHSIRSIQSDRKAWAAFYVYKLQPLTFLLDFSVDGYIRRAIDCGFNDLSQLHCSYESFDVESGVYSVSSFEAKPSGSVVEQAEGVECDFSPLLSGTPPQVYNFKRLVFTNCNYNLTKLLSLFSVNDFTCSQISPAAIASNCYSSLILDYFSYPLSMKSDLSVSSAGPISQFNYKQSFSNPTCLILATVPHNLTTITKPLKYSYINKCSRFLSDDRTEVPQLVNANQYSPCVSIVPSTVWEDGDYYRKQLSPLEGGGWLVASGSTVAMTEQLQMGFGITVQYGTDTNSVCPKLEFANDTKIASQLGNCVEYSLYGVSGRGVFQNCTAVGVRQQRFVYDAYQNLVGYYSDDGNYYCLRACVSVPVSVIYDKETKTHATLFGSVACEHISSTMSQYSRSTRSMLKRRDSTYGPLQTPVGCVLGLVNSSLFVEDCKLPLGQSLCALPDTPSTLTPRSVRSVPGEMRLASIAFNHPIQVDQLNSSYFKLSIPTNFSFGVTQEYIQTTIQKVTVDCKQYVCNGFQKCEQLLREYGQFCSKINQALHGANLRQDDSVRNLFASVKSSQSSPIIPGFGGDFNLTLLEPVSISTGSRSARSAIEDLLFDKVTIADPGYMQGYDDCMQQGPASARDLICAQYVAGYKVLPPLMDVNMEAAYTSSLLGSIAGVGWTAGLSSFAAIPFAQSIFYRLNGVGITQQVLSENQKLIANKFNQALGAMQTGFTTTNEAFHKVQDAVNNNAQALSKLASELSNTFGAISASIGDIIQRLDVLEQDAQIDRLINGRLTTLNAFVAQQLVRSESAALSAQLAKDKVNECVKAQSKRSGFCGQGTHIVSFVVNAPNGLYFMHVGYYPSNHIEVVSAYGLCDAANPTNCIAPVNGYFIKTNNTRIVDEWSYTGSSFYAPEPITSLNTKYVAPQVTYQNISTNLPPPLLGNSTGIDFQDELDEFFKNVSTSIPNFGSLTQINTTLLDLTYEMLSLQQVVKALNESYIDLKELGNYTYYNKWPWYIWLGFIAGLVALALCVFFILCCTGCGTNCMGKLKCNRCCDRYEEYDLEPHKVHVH
Assay: cell-based or functional assay

Row | Binder | Antivirus vs Pseudovirus IC50 (pM) | IC50, neutralization of MERS CoV by the soluble antibody
1 | B1 | 12 pM | –
2 | B2 | – | 1.2 nM
